Here are results for 3 molecules from publication PMC5832925, “Hypoxia-inducible lipid droplet-associated protein inhibits adipose triglyceride lipase” (Journal of Lipid Research, 2018).

Experiment [1] deals with T1, sf-GFP-mATGL288 (mouse ATGL residues 1-288 fused to superfolder GFP) (mouse) (UniProt Q8BJ56).
T1 sequence: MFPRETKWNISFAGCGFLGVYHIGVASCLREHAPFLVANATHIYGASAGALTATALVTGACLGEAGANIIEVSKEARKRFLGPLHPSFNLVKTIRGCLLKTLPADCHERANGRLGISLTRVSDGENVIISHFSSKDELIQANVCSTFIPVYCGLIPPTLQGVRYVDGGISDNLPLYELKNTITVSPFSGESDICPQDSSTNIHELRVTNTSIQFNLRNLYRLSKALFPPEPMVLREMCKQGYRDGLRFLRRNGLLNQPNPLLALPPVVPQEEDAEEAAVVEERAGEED

In experiment [2] the target is T2, sf-GFP-mATGL288 (mouse ATGL residues 1-288 fused to superfolder GFP) (mouse, UniProt Q8BJ56 1-288).
T2 sequence (looked up): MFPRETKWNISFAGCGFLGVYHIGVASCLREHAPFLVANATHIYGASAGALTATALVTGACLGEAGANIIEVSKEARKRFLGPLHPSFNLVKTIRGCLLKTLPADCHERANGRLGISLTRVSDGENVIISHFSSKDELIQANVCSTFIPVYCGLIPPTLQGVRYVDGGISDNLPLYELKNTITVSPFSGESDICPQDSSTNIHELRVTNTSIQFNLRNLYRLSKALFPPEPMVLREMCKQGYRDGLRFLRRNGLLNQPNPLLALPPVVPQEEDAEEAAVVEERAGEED
Briefly: cell-based or functional assay.

For experiment [3], the target named is T2, sf-GFP-mATGL288 (mouse ATGL residues …). Briefly: MST; Monolith NT.115; smt3-tagged hHILPDA 1.1 μM to 487 μM titrated against 0.01 μM sf-GFP-mATGL_288; 20 mM phosphate, 300 mM NaCl, 1 mM EDTA, 1 mM DTT pH 7.0, 1% BSA; room temperature; triplicate. As to conditions: both partners purified.

B1: hHILPDA_1-28 (6XHis-smt3-TEV fusion) (domain or fragment)
chain: MKHVLNLYLLGVVLTLLSIFVRVMESLE
Regarding B1, the IC50 of inhibition of TGH activity of mATGL288 lysate (without sf-GFP) with CGI-58; HILPDA 1-28 44 nM to 44 μM in experiment [1] was 5 µM.

B2: hHILPDA_1-24 (6XHis-smt3-TEV fusion) (domain or fragment)
chain: MKHVLNLYLLGVVLTLLSIFVRVM
Turning to B2, the IC50 of inhibition of TGH activity of mATGL288 lysate (without sf-GFP) with CGI-58; HILPDA 1-24 44 nM to 44 μM in experiment [1] is 5.4 µM.

B3: 6XHis-smt3-TEV-hHILPDA (human hypoxia-inducible lipid droplet-associated protein, full length) (natural protein, UniProt Q9Y5L2 1-63, looked up)
chain: MKHVLNLYLLGVVLTLLSIFVRVMESLEGLLESPSPGTSWTTRSQLANTEPTKGLPDHPSRSM
notes: human HILPDA (Hig-2), 63 amino acids, construct hHILPDA_1-63 in a modified pSUMO vector with 6XHis tag and TEV site; The fusion protein (22 kDa) was used without removal of smt3; a TEV site lies between smt3 and HILPDA; also called smt3-HILPDA fusion protein; source: E. coli BL21-CodonPlus (DE3)-RIL, purified (HisTrap FF, Superdex 200); not shown: smt3, N-terminal, kept
What is called Kd is the equilibrium constant for the complex coming apart. On to B3, for which the “IC50 of inhibition of TGH activity of mATGL288 lysate (without sf-GFP) with CGI-58; HILPDA 44 nM to 44 μM” value in experiment [2] is 1.9 µM. The molecule also showed a Kd in experiment [3] of 247 µM.
